Source: PMC3071809, “Recombinant Complement Receptor 2 Radiolabeled with [^99mTc(CO)3]^+ : A Potential New Radiopharmaceutical for Imaging Activated Complement” (PLoS ONE, 2011)

B1: recombinant Complement Receptor 2 (rCR2), Short Consensus Repeats 1 and 2 of human CR2 with the C-terminal sequence … (domain or fragment, UniProt P20023 21-154, looked up)
chain: ISCGSPPPILNGRISYYSTPIAVGTVIRYSCSGTFRLIGEKSLLCITKDKVDGTWDKPAPKCEYFNKYSSCPEPIVPGGYKIRGSTPYRHGDSVTFACKTNFSMNGNKSVWCQANNMWGPTRLPTCVSVFPLEC
notes: complement receptor type 2 (CR2, CD21), human, residues 21-154: SCR1, SCR2 and the SCR2 to SCR3 linker VFPLEC; 15.5 kDa; cloned in pET-24a (NdeI/EcoRI); also called recombinant CR2; SCR1/2 fragment; not shown: His6, C-terminal, kept
B2: ^99mTc-rCR2 (rCR2 radiolabeled with [^99mTc(CO)3]^+ on the His-tag) (domain or fragment, human, UniProt P20023 21-154, looked up)
chain: B1 chain
modifications: [^99mTc(CO)3]^+ on the C-terminal His-tag
notes: complement receptor type 2 (CR2), human, residues 21-154, as m1; m1 with the radiolabel; also called rCR2-Tc^99m; rCR2-[^99mTc(CO)3]; source: labeled with [^99mTc(CO)3(OH2)3]^+ at 37°C; not shown: His6, C-terminal, kept

Key:
[1] = molecular target: T1, human C3d protein (Merck) (human, UniProt P01024 1002-1303); assay: ELISA; C3d coated at two fold concentrations from 1.5 to 1500 nM/well in PBS pH 7.4; rCR2 or C2A at a fixed 1.5 µM in 0.05% BSA-PBS pH 7.4, 1 h, room temperature; detected with anti-His antibody; details: both partners purified
T1 construct: C3d fragment of complement C3, human; also called C3d antigen; immobilized C3d; source: bought: Merck, Darmstadt, Germany

[2] = molecular target: C3d construct with a free exposed thiol (Cys17, corresponding to Cys1010 of full length C3) (human); assay: SPR; Biacore T100, 25°C; C3d immobilised on a CM5 chip by thiol coupling of the free Cys17; rCR2 as analyte; 0.01 M HEPES pH 7.4, 0.15 M NaCl, 3 mM EDTA, 0.005% Tween 20; equilibrium analysis, Langmuir isotherm
[3] = molecular target: T1, human C3d protein (Merck); assay: radioligand binding; radioactive ELISA: C3d coated on 12 well strips at increasing two fold concentrations, ^99mTc-rCR2 added, wells gamma counted; one site specific binding model Y = Bmax*X/(Kd+X); details: both partners purified

T1 sequence (P01024 1002-1303): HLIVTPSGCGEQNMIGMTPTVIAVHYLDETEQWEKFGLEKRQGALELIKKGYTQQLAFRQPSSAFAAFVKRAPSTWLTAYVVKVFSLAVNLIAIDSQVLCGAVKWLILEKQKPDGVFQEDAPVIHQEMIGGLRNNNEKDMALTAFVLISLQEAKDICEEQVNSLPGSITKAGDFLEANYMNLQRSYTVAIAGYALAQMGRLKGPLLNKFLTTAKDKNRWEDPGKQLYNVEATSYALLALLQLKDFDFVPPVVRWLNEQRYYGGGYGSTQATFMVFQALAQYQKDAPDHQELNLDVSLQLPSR

Row | Binder | EC50 [1] [nM] | Kd [2] [nM] | stoichiometry N [2] | Kd [3] [nM]
1 | B1 | ~48.5 | 570 | 1 | 
2 | B2 |  |  |  | 25.5
